Assay [1] has as its target T1, DrPPX (Deinococcus radiodurans, UniProt Q9RYW9).
T1 construct: gene DR_A0185; full length, N-terminal His6 tag (pET-28a), expressed in E. coli BL21 Rosetta pLysS (DE3); asymmetric homodimer; about 515 residues (C-terminal deletion printed as 320-515)
The experiment in a line: X-ray crystal structure of complex. The settings on record: crystals grown in 1.26 M NaH2PO4 and 0.14 M K2HPO4, pH 5.6; four phosphate ions in the polyP-binding area.

Assay [2] addresses DrPPX, exopolyphosphatase (PPX) from Deinococcus radiodurans, wild type (Deinococcus radiodurans R1). Kind of assay: SEC; gel filtration chromatography; elution peak of DrPPX (+7AA) compared with that of wild-type DrPPX. For orientation: In gel filtration, larger molecules generally elute earlier.
Assay [3] has the same target. Kind of assay: crystal structure; sitting drop vapor diffusion at 20 °C, protein 1-5 mg/mL; molecular replacement with E. coli PPX (PDB 1U6Z); dimers seen in the crystals.
Assay [4] addresses KpPPX, exopolyphosphatase (PPX) from Klebsiella pneumoniae (Klebsiella pneumoniae 1158). Described as above.
For assay [5], the target named is AbPPX, exopolyphosphatase (PPX) from Acinetobacter baumannii (Acinetobacter baumannii 15827). The description is as above.

T1 sequence (Q9RYW9 entry or part of it): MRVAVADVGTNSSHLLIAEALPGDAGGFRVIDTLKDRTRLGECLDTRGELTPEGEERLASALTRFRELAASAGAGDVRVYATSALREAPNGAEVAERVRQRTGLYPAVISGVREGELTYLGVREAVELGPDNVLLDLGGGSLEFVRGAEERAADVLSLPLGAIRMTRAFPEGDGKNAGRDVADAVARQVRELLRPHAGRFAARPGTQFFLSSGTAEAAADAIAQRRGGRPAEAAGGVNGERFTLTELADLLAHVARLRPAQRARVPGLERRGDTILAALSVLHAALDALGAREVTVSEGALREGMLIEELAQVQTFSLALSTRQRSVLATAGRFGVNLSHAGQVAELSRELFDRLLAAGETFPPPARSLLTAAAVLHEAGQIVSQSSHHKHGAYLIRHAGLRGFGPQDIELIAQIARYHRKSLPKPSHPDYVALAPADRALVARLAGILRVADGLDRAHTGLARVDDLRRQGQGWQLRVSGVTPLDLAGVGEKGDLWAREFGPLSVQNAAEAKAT

On to `O=P(O)(O)O` [Pi, phosphate], for which the “X-ray crystal structure of complex” value in assay [1] is “four phosphate ions were located in the polyP‐binding area”.
What is called stoichiometry N is a count of units in the complex or per binding partner. Turning to “DrPPX, exopolyphosphatase (PPX) from Deinococcus radiodurans, wild type (enzyme)”, the stoichiometry N in assay [2] and in assay [3] was 2 in each case.
The molecule “KpPPX, exopolyphosphatase (PPX) from Klebsiella pneumoniae (enzyme)” registered a stoichiometry N in assay [4] of 2.
In turn, “AbPPX, exopolyphosphatase (PPX) from Acinetobacter baumannii (enzyme)” gave a stoichiometry N in assay [5] of 2.
